Laboratory results from publication PMC12297555.

Molecular target: T1, ScoC (Geobacillus kaustophilus strain T-1, UniProt Q5L293 1-201)
T1 sequence: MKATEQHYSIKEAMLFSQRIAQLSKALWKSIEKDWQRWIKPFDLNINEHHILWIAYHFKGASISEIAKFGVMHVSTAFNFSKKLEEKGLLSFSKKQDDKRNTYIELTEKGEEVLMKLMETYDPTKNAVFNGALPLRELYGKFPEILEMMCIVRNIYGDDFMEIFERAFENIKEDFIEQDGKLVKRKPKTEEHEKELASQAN
Assay: X-ray crystallography

B1: Oligo 4, 23-bp symmetric palindromic dsDNA (dsDNA)
DNA 1: AATATTATTAACAAAATAATATT
DNA 2: AATATTATTTTGTTAATAATATT
  binding result: binds
